Source: patent publication US20170190774A1 (REPROPHARM, published 2017)
Where two headings read alike, the source gives them in different places.

Key:
[1] = molecular target: T1, human FSH Gonal-F (recombinant human FSH, Merck Serono) (human, UniProt P01215 25-116; P01225 19-129); assay: cell-based or functional assay
ovine FSH (oFSH) [2] = molecular target: T2, ovine FSH (oFSH) (ovine, UniProt P01218 25-120; P01227 20-129); assay: cell-based or functional assay
β-subunit of human FSH [3] = molecular target: T3, β-subunit of human FSH (human, UniProt P01225 19-129); assay: ELISA, subunit adsorbed on the plate, antibody titrated; (A/B)x100 relative to oFSH
T3 construct: mature; Isolated subunit adsorbed on the ELISA plate; also called β-s.u. hFSH
T3 sequence (P01225 19-129): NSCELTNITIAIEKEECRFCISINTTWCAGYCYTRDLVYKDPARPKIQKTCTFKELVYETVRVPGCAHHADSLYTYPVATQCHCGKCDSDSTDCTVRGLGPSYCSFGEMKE

α-subunit of ovine FSH [4] = molecular target: T4, α-subunit of ovine FSH (ovine, UniProt P01218 25-120); assay: as above
β-subunit of ovine FSH [5] = molecular target: T5, β-subunit of ovine FSH (ovine, UniProt P01227 20-129); assay: as above
T5 construct: mature; Isolated subunit adsorbed on the ELISA plate; also called β-s.u. oFSH; β-oFSH

[6] = molecular target: T1, human FSH Gonal-F (recombinant human …); assay: ELISA, hormone adsorbed on the plate, antibody titrated; (A/B)x100 relative to oFSH
Method: (§1) The specificity of the antibodies and of the scFv thereof was studied by the ELISA technique. Each hormone evaluated was prepared at the concentration of 10 μg/ml in a 0.1M sodium carbonate buffer, pH 9.6, and distributed in a proportion of 100 μl per well on an ELISA plate. The adsorption time was 18 hours at +4° C. After five washes, the wells were treated with 100 μl of PBS supplemented with 0.1% Tween and 1% BSA for 45 minutes at 37° C., then each antibody or scFv was distributed in a proportion of 100 μl/well and incubated for one hour at 37° C. On each hormone evaluated, the antibodies and the scFvs were distributed at various concentrations according to a range of 10 to 250 μg/ml for the antibodies and of 10 to 150 or 200 μg/ml for the scFvs.
(§2) After five washes, a secondary antibody coupled to peroxidase (HRP) was distributed in a proportion of 100 μl/well and incubated for one hour at 37° C. […] For the scFvs, an anti-His Tag HRP (Ref. R93125 Life Technologies, France) was used. […] After the reaction had been stopped with 1M H₂SO₄ (50 μl/well), the strength of the colored reaction (optical density) was measured using a spectrophotometer for ELISA plates.
(§3) The percentage of cross reaction was calculated conventionally by comparing the dose-response curves obtained with the concentration range of the antibody or of the scFv.

porcine FSH (pFSH) [7] = molecular target: T6, porcine FSH (pFSH) (porcine, UniProt P01219 25-120; P01228 21-129); assay: as above
Method: as §1, §2, §3

[8] = molecular target: T7, human FSH Puregon (recombinant human FSH, Merck Schering-Plough) (human, UniProt P01215 25-116; P01225 19-129); assay: as above
T7 construct: mature; Recombinant pharmaceutical preparation; also called hFSH (Puregon); hFSH Puregon
T7 sequence (P01215 25-116, chain 1 of 2): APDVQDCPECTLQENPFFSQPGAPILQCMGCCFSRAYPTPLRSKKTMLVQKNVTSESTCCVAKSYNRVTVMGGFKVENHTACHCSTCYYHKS
T7 sequence (P01225 19-129, chain 2 of 2): as the sequence (P01225 19-129) above
Method: as §1, §2, §3

[9] = molecular target: T8, human FSH Fostimon (purified FSH extracted from urine, Laboratoire Genévrier) (human, UniProt P01215 25-116; P01225 19-129); assay: as above
T8 construct: mature; Extracted pharmaceutical preparation; also called hFSH (Fostimon); hFSH Fostimon
T8 sequence (P01215 25-116, chain 1 of 2): as the sequence (P01215 25-116, chain 1 of 2) above
T8 sequence (P01225 19-129, chain 2 of 2): as the sequence (P01225 19-129) above
Method: as §1, §2, §3

β-subunit of human FSH [10] = molecular target: T3, β-subunit of human FSH; assay: ELISA, subunit adsorbed on the plate, antibody titrated; (A/B)x100 relative to oFSH; remark: listed apart in the source
Method: as §1, §2, §3

α-subunit of ovine FSH [11] = molecular target: T4, α-subunit of ovine FSH; assay: as above; remark: listed apart in the source
Method: as §1, §2, §3

β-subunit of ovine FSH [12] = molecular target: T5, β-subunit of ovine FSH; assay: as above; remark: listed apart in the source
Method: as §1, §2, §3

[13] = molecular target: T1, human FSH Gonal-F (recombinant human …); assay: ELISA, hormone adsorbed on the plate, scFv titrated, anti-His HRP; (A/B)x100 relative to oFSH
Method: as §1, §2, §3

ovine LH (oLH) [14] = molecular target: T9, ovine LH (oLH) (ovine, UniProt P01218 25-120; P01231 21-141); assay: as above
Method: as §1, §2, §3

bovine LH (bLH) [15] = molecular target: T10, bovine LH (bLH) (bovine, UniProt P01217 25-120; P04651 21-141); assay: as above
Method: as §1, §2, §3

porcine LH (pLH) [16] = molecular target: T11, porcine LH (pLH) (porcine, UniProt P01219 25-120; P01232 21-141); assay: as above
Method: as §1, §2, §3

porcine FSH (pFSH) [17] = molecular target: T6, porcine FSH (pFSH); assay: as above
Method: as §1, §2, §3

[18] = molecular target: T7, human FSH Puregon (recombinant human …); assay: as above
Method: as §1, §2, §3

[19] = molecular target: T8, human FSH Fostimon (purified FSH …); assay: as above
Method: as §1, §2, §3

ovine FSH (oFSH) [20] = molecular target: T2, ovine FSH (oFSH); assay: ELISA saturation binding, one site-specific binding fit in GraphPad Prism (estimate); differs from Table 25
[21] = molecular target: T1, human FSH Gonal-F (recombinant human …); assay: ELISA saturation binding, one site-specific binding fit in GraphPad Prism (estimate)
Method: as §1

[22] = molecular target: T12, equine chorionic gonadotropin (eCG) (equine, UniProt P01220 25-120; P08751 21-169); assay: as above
T12 construct: mature; Alpha/beta dimer
T12 sequence (P01220 25-120, chain 1 of 2): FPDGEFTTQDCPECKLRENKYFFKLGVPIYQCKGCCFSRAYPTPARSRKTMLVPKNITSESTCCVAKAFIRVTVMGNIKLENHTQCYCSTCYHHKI
T12 sequence (P08751 21-169, chain 2 of 2): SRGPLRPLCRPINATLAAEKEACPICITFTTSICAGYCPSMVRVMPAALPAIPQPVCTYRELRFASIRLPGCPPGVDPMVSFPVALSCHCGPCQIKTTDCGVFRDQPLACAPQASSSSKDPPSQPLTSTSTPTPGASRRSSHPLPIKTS
Method: as §1

ovine LH (oLH) [23] = molecular target: T9, ovine LH (oLH); assay: as above
Method: as §1

bovine LH (bLH) [24] = molecular target: T10, bovine LH (bLH); assay: as above
Method: as §1

porcine LH (pLH) [25] = molecular target: T11, porcine LH (pLH); assay: as above
Method: as §1

[26] = molecular target: T13, hCG Endo 5000 (purified human chorionic gonadotropin, Schering-Plough) (human, UniProt P01215 25-116; P0DN86 21-165); assay: as above
T13 construct: mature; Extracted pharmaceutical preparation
T13 sequence (P01215 25-116, chain 1 of 2, other chains not shown): as the sequence (P01215 25-116, chain 1 of 2) above
Method: as §1

[27] = molecular target: T14, hCG Chorulon (human chorionic gonadotropin extracted from urine, MSD) (human, UniProt P01215 25-116; P0DN86 21-165); assay: as above
T14 construct: mature; Extracted veterinary preparation
T14 sequence (P01215 25-116, chain 1 of 2, other chains not shown): as the sequence (P01215 25-116, chain 1 of 2) above
Method: as §1

porcine FSH (pFSH) [28] = molecular target: T6, porcine FSH (pFSH); assay: as above
Method: as §1

[29] = molecular target: T7, human FSH Puregon (recombinant human …); assay: as above
Method: as §1

[30] = molecular target: T8, human FSH Fostimon (purified FSH …); assay: as above
Method: as §1

ovine FSH (oFSH) [31] = molecular target: T2, ovine FSH (oFSH); assay: as above
Method: as §1

T1 sequence (P01215 25-116, chain 1 of 2): as above
T1 sequence (P01225 19-129, chain 2 of 2): as the sequence (P01225 19-129) above

B1: CA5 monoclonal antibody (antibody, IgG2a, V domains shown)
VH: EVKLVESGGGLVQPGGSLRLSCATSGFTFSDFYMEWVRQPPGKRLEWIAASRNKAKDYTTEYSASVKGRFIVSRDTSQSILYLQMNALRAEDTAIYFCARDARFAYWGQGTLVTVSA
VL: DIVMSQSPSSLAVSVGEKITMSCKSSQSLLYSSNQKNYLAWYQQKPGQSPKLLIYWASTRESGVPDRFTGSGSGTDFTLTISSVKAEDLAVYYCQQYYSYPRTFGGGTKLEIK
notes: also called CA5 antibody; CA5 ligand
For B1, the “EC50 of the hFSH/CA5 complex, cAMP (GloSensor), HEK 293 cells with the human FSH receptor” value [1] was 0.000136 µM, the “EC50 of the oFSH/CA5 complex, cAMP (GloSensor), HEK 293 cells with the human FSH receptor” value (ovine FSH (oFSH) [2]) was 0.000283 µM and the “amplification of cAMP secretion, bovine granulosa cells” value (ovine FSH (oFSH) [2]) was 1.3 fold. It also gave a cross reaction (β-subunit of human FSH [3]) of 50%, a cross reaction (α-subunit of ovine FSH [4]) of 6% and a cross reaction (β-subunit of ovine FSH [5]) of 80%. It also gave a cross reaction [6] of 128%, a cross reaction (porcine FSH (pFSH) [7]) of 134% and a cross reaction [8] of 70%. It also gave a cross reaction [9] of 76%.

B2: CH10 monoclonal antibody (antibody, IgM, V domains shown)
VH: EVQLVESGGGLVQPKGSLKLSCAASGFTFNTYAMNWVRQAPGKGLEWVARIRSKSNNYATYYADSVKDRFTISRDDSQSMLYLQMNNLKTEDTAMYYCVRQDYYGSSYFDYWGQGTTLTVSS
VL: DIVMTQSPATLSVTPGDRVSLSCRASQSISDYLHWYQQKSHESPRLLIKYASQSISGIPSRFSGSGSGSDFTLSINSVEPEDVGVYYCQNGHSFPYTFGGGTKLEIK
notes: also called CH10 antibody; CH10 ligand
With B2 the “EC50 of the hFSH/CH10 complex, cAMP (GloSensor), HEK 293 cells with the human FSH receptor” value [1] was 0.000317 µM, the “amplification of cAMP secretion, bovine granulosa cells” value (ovine FSH (oFSH) [2]) was 5.5 fold and the cross reaction (β-subunit of human FSH [10]) was 40%. It also gave a cross reaction (α-subunit of ovine FSH [11]) of 43%, a cross reaction (β-subunit of ovine FSH [12]) of 88% and a cross reaction [6] of 50%. For the same binder, the cross reaction (porcine FSH (pFSH) [7]) was 24%, the cross reaction [8] was 71% and the cross reaction [9] was 100%.

B3: CH10 scFv (scFv)
scFv: QVQLQQSGGGLVQPKGSLKLSCAASGFTFNTYAMNWVRQAPGKGLEWVARIRSKSNNYATYYADSVKDRFTISRDDSQSMLYLQMNNLKTEDTAMYYCVRQDYYGSSYFDYWGQGTTLTVSSGGGGSGGGGSGGGGSDIQMTQTPATLSVTPGDRVSLSCRASQSISDYLHWYQQKSHESPRLLIKYASQSISGIPSRFSGSGSGSDFTLSINSVEPEDVGVYYCQNGHSFPYTFGGGTKLEIKHHHHHH
notes: VH-(Gly4Ser)3-VL-His6, made in the E. coli periplasm; also called scFv derived from the CH10 antibody
B3 showed a cross reaction [13] of 32%, a cross reaction (ovine LH (oLH) [14]) of 68% and a cross reaction (bovine LH (bLH) [15]) of 52%. The cross reaction (porcine LH (pLH) [16]) was 63%, the cross reaction (porcine FSH (pFSH) [17]) was 175% and the cross reaction [18] was 67%. It also gave a cross reaction [19] of 30%, a Kd (ovine FSH (oFSH) [20]) of 7.51 µM and a Kd [21] of 1.82 µM. It also gave a Kd [22] of 1.97 µM, a Kd (ovine LH (oLH) [23]) of 1.55 µM and a Kd (bovine LH (bLH) [24]) of 1.94 µM. It also gave a Kd (porcine LH (pLH) [25]) of 2.47 µM, a Kd [26] of 2.09 µM and a Kd [27] of 1.47 µM. It also gave a Kd (porcine FSH (pFSH) [28]) of 5.22 µM, a Kd [29] of 11.5 µM and a Kd [30] of 1.59 µM. For the same binder, the Kd (ovine FSH (oFSH) [31]) was 2.85 µM.
